{
  "source": "the RNAGym collection of RNA variant scans (doi:10.1073/pnas.2313332121)",
  "parents": {"B1": {"name": "TPR 5TU (parent)", "chain": "GGAUCUUCUCGAUCUAACAAAAAAGACAAAUCUGCCACAAAGCUUGAGAGCAUCUUCGGAUGCAGAGGCGGCAGCCUUCGGUGGCGCGAUAGCGCCAACGUUCUCAACUAUGACACGCAAAACGCGUGCUCCGUUGAAUGGAGUUUAUCAUG"}},
  "note": "Variants at the floor of the assay were thinned out.",
  "data": [
    {"variants_of": "B1", "assay": "polymerase ribozyme fitness, log enrichment relative to wild type (log ratio); higher = more active; in vitro selection for triplet polymerase activity", "outline": "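The heterodimeric triplet polymerase ribozyme's subunits were each mutagenized into PCR-built libraries and transcribed. Every library was selected once, in triplicate, by annealing with a biotinylated primer, the partner subunit and triplets, incubating frozen at −7 °C, gel-excising extended constructs, capturing on streptavidin beads and running RT-PCR. Input and output libraries were Illumina-sequenced, with genotypes kept only at ≥10 input reads and ≥1 read per output. Fitness, from inverse-variance-weighted replicate averages, is the base-2 logarithm of genotype enrichment over wild-type enrichment.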", "values": [
      {"variant": "U6G G25U G50C G92A", "polymerase ribozyme fitness (log ratio)": "≤ -4.2"},
      {"variant": "U6G C63U G83U A98U A122U", "polymerase ribozyme fitness (log ratio)": -0.875},
      {"variant": "U7A A73G C87G C131A", "polymerase ribozyme fitness (log ratio)": "≤ -4.2"},
      {"variant": "U6G C75G U90A G92U", "polymerase ribozyme fitness (log ratio)": "≤ -4.2"},
      {"variant": "U7C C8A C32U A91U A121G U134C", "polymerase ribozyme fitness (log ratio)": "≤ -4.2"},
      {"variant": "U7A C79G G94C C114A C118G", "polymerase ribozyme fitness (log ratio)": "≤ -4.2"},
      {"variant": "U7C A19U C35U A37G U55G C76G G86A G88U C103G G124A", "polymerase ribozyme fitness (log ratio)": "≤ -4.2"},
      {"variant": "U7A C10A C14U C32G C36A U53G U55G U61A G67C U82G C87G C96U C103G", "polymerase ribozyme fitness (log ratio)": "≤ -4.2"},
      {"variant": "U6G A30C C43G A52C C54U U77A C85G A119G U148G", "polymerase ribozyme fitness (log ratio)": "≤ -4.2"},
      {"variant": "U7G G50C G58U C63U C76A G92A C149G", "polymerase ribozyme fitness (log ratio)": "≤ -4.2"},
      {"variant": "U7A G25A G50U G84U", "polymerase ribozyme fitness (log ratio)": "≤ -4.2"},
      {"variant": "U7A A23C G50U G59A A73C G86U C95G C108U", "polymerase ribozyme fitness (log ratio)": "≤ -4.2"},
      {"variant": "U6G U78G C93U A98G A142C", "polymerase ribozyme fitness (log ratio)": -3.99},
      {"variant": "C8A C14G U53C G58A G62C C85G", "polymerase ribozyme fitness (log ratio)": "≤ -4.2"},
      {"variant": "U7G A23G", "polymerase ribozyme fitness (log ratio)": "≤ -4.2"},
      {"variant": "U7G C95U", "polymerase ribozyme fitness (log ratio)": -2.93},
      {"variant": "C8A A26U A49U G83U U101G C118U A138C", "polymerase ribozyme fitness (log ratio)": "≤ -4.2"},
      {"variant": "U6G C10U A12U U33G A37U C95A U135A G141U U144C", "polymerase ribozyme fitness (log ratio)": "≤ -4.2"},
      {"variant": "U6G A60C C85A C96U G124U", "polymerase ribozyme fitness (log ratio)": -4.11},
      {"variant": "U6G C96U", "polymerase ribozyme fitness (log ratio)": -0.759},
      {"variant": "U7G A64G C87A C105A U144G", "polymerase ribozyme fitness (log ratio)": "≤ -4.2"},
      {"variant": "U6G G34C A52U A89G C93A A107U A115U A150C", "polymerase ribozyme fitness (log ratio)": "≤ -4.2"},
      {"variant": "C8A A12G C85U C103G G124U C129A", "polymerase ribozyme fitness (log ratio)": "≤ -4.2"},
      {"variant": "C8A A73U G83A C93U A138C U145C", "polymerase ribozyme fitness (log ratio)": "≤ -4.2"},
      {"variant": "U7G U82A G117U", "polymerase ribozyme fitness (log ratio)": -3.65},
      {"variant": "U7G A12G C18G C32U G94C A115U", "polymerase ribozyme fitness (log ratio)": "≤ -4.2"},
      {"variant": "C8A C14U A21C U53A G83A A150C", "polymerase ribozyme fitness (log ratio)": "≤ -4.2"},
      {"variant": "U6G A73U", "polymerase ribozyme fitness (log ratio)": -0.322},
      {"variant": "U6G U7C U55A U135A", "polymerase ribozyme fitness (log ratio)": -4.01},
      {"variant": "U7C A17G A23U A52C C76G C85U C93A G128U G152C", "polymerase ribozyme fitness (log ratio)": "≤ -4.2"},
      {"variant": "U7G U53A U56G G84U U148C", "polymerase ribozyme fitness (log ratio)": "≤ -4.2"},
      {"variant": "U7A A119G A120C", "polymerase ribozyme fitness (log ratio)": -3.25},
      {"variant": "C8A A17U A23U A26G C27G U90G G92A A115C", "polymerase ribozyme fitness (log ratio)": "≤ -4.2"},
      {"variant": "U7A G94C U111C U135A A138U", "polymerase ribozyme fitness (log ratio)": -3.87},
      {"variant": "U6G A47C C87A", "polymerase ribozyme fitness (log ratio)": "≤ -4.2"},
      {"variant": "U7G C75A G84A G94U A106U A120C", "polymerase ribozyme fitness (log ratio)": "≤ -4.2"},
      {"variant": "U6G A52C", "polymerase ribozyme fitness (log ratio)": -0.94},
      {"variant": "U7C A12C C87A C105A C116G A138U G152U", "polymerase ribozyme fitness (log ratio)": "≤ -4.2"},
      {"variant": "U7C A17G A119U", "polymerase ribozyme fitness (log ratio)": -3.03},
      {"variant": "U7C C27A C69G G86A G100C", "polymerase ribozyme fitness (log ratio)": "≤ -4.2"},
      {"variant": "U7G G42A U44A G68C A91U G117A U135A", "polymerase ribozyme fitness (log ratio)": "≤ -4.2"},
      {"variant": "U7G C63G C76G C93G A97U C99G A106U", "polymerase ribozyme fitness (log ratio)": "≤ -4.2"},
      {"variant": "U7G A21G C57G U127G U130G C131U U135G U148A", "polymerase ribozyme fitness (log ratio)": "≤ -4.2"},
      {"variant": "U7G C35A A40G U77C A150U", "polymerase ribozyme fitness (log ratio)": "≤ -4.2"},
      {"variant": "U6G C57A C85A C95U", "polymerase ribozyme fitness (log ratio)": -0.326},
      {"variant": "U7C A16U A49G G92C", "polymerase ribozyme fitness (log ratio)": "≤ -4.2"},
      {"variant": "U7A C14U U31A C57G U61A A89U U90C C99A A115U A122C", "polymerase ribozyme fitness (log ratio)": "≤ -4.2"},
      {"variant": "C8A A12U U61A C79U G84U C85G C118U A119G C129A G143C U148G", "polymerase ribozyme fitness (log ratio)": "≤ -4.2"},
      {"variant": "U6G U53A", "polymerase ribozyme fitness (log ratio)": -0.949},
      {"variant": "U7G A16C", "polymerase ribozyme fitness (log ratio)": -2.38},
      {"variant": "U7C G48C C85U", "polymerase ribozyme fitness (log ratio)": -3.27},
      {"variant": "C8A A22U C79G G81U C95U A107U C108U", "polymerase ribozyme fitness (log ratio)": "≤ -4.2"},
      {"variant": "U7C G50A G84U C87A U151A", "polymerase ribozyme fitness (log ratio)": "≤ -4.2"},
      {"variant": "U7G A30G C32A A39U A60G C96U G126U G140U", "polymerase ribozyme fitness (log ratio)": -3.86},
      {"variant": "U6G A122C", "polymerase ribozyme fitness (log ratio)": -0.304},
      {"variant": "U7C U55A C63U G88U A107U U145A", "polymerase ribozyme fitness (log ratio)": "≤ -4.2"},
      {"variant": "U7A C14G C32U A106G U148C", "polymerase ribozyme fitness (log ratio)": "≤ -4.2"},
      {"variant": "U6G G50C", "polymerase ribozyme fitness (log ratio)": -3.07},
      {"variant": "C8A C18U C35G C57U C76A G92U G117C U134A", "polymerase ribozyme fitness (log ratio)": "≤ -4.2"},
      {"variant": "U6G A28U C72U C87A", "polymerase ribozyme fitness (log ratio)": "≤ -4.2"},
      {"variant": "C8A A49G C76A C93A C103G C105A U127C", "polymerase ribozyme fitness (log ratio)": "≤ -4.2"},
      {"variant": "U7A A60G C85U U144C", "polymerase ribozyme fitness (log ratio)": -3.61},
      {"variant": "U6G G100A A107U A113U", "polymerase ribozyme fitness (log ratio)": "≤ -4.2"},
      {"variant": "U7A A121U A138G", "polymerase ribozyme fitness (log ratio)": "≤ -4.2"},
      {"variant": "U6G C54G A73U U102A A106G U127G C132G U135G", "polymerase ribozyme fitness (log ratio)": "≤ -4.2"},
      {"variant": "U7A U111G", "polymerase ribozyme fitness (log ratio)": -4.19},
      {"variant": "U7C A19C C57G C85U C96U U148A", "polymerase ribozyme fitness (log ratio)": "≤ -4.2"},
      {"variant": "U6G U78A G84U A91C C108A A121C", "polymerase ribozyme fitness (log ratio)": "≤ -4.2"},
      {"variant": "U6G C85A C87G A98U A106C U148A", "polymerase ribozyme fitness (log ratio)": "≤ -4.2"},
      {"variant": "U7G U13A A17U A20C G50A A122C G141U U151G", "polymerase ribozyme fitness (log ratio)": "≤ -4.2"},
      {"variant": "U6G A28G G58U C85U", "polymerase ribozyme fitness (log ratio)": "≤ -4.2"},
      {"variant": "U6G G141A", "polymerase ribozyme fitness (log ratio)": 0.243},
      {"variant": "U7C A24U G84U C87G A107C G112U G133U", "polymerase ribozyme fitness (log ratio)": "≤ -4.2"},
      {"variant": "C8A A16G G50U G83C U135C G136C", "polymerase ribozyme fitness (log ratio)": "≤ -4.2"},
      {"variant": "U7C A20U C96A C103U U109C G152U", "polymerase ribozyme fitness (log ratio)": -3.42},
      {"variant": "U6G U7C A20U A39G A40C G42C G59A G92U C93G A115U C116U", "polymerase ribozyme fitness (log ratio)": "≤ -4.2"},
      {"variant": "U7A C8U A73G G81A G83A C96A A119U G124C", "polymerase ribozyme fitness (log ratio)": "≤ -4.2"},
      {"variant": "C8A A26G G59U A89G C93G C95U C108U C132A", "polymerase ribozyme fitness (log ratio)": "≤ -4.2"},
      {"variant": "U6G C93A", "polymerase ribozyme fitness (log ratio)": -1.75},
      {"variant": "U6G C93G", "polymerase ribozyme fitness (log ratio)": -3.18},
      {"variant": "U7G C76A C85G C95A A121U", "polymerase ribozyme fitness (log ratio)": "≤ -4.2"},
      {"variant": "U6G C57G C85U A98U", "polymerase ribozyme fitness (log ratio)": -1.17},
      {"variant": "C8A A22G U56A C57U C85G", "polymerase ribozyme fitness (log ratio)": "≤ -4.2"}
    ]}
  ]
}
